Results from patent US20190321401A1 (JUNO THERAPEUTICS, published 2019).
Numbering of substitutions follows the chain as printed.

B1: TCR 62 (TCR, V domains shown)
Valpha: AQTVTQSQPEMSVQEAETVTLSCTYDTSENNYYLFWYKQPPSRQMILVIRQEAYKQQNATENRFSVNFQKAAKSFSLKISDSQLGDTAMYFCALYTYKYIFGTGTRLKVLA
Vbeta: EAGVAQSPRYKIIEKRQSVAFWCNPISGHATLYWYQQILGQGPKLLIQFQNNGVVDDSQLPKDRFSAERLKGVDSTLKIQPAKLEDSAVYLCASSLDTRGSSYNEQFFGPGTRLTVL
B2: TCR 58 (TCR, V domains shown)
Valpha: RKEVEQDPGPFNVPEGATVAFNCTYSNSASQSFFWYRQDCRKEPKLLMSVYSSGNEDGRFTAQLNRASQYISLLIRDSKLSDSATYLCVVNRDNYGQNFVFGPGTRLSVLP
Vbeta: EPEVTQTPSHQVTQMGQEVILRCVPISNHLYFYWYRQILGQKVEFLVSFYNNEISEKSEIFDDQFSVERPDGSNFTLKIRSTKLEDSAMYFCASTPRSSYEQYFGPGTRLTVT
B3: TCR 61 (TCR, V domains shown)
Valpha: QKEVEQNSGPLSVPEGAIASLNCTYSDRGSQSFFWYRQYSGKSPELIMFIYSNGDKEDGRFTAQLNKASQYVSLLIRDSQPSDSATYLCAVNIENNNARLMFGDGTQLVVKP
Vbeta: B2 Vbeta with P96K, S98F
B4: TCR 59 (TCR, V domains shown)
Valpha: GQQVMQIPQYQHVQEGEDFTTYCNSSTTLSNIQWYKQRPGGHPVFLIQLVKSGEVKKQKRLTFQFGEAKKNSSLHITATQTTDVGTYFCAPKREYGNKLVFGAGTILRVKS
Vbeta: B2 Vbeta with S94Y, T95S, P96G, S98A
B5: TCR 60 (TCR, V domains shown)
Valpha: QKEVEQNSGPLSVPEGAIASLNCTYSDRGSQSFFWYRQYSGKSPELIMFIYSNGDKEDGRFTAQLNKASQYVSLLIRDSQPSDSATYLCAVNMLGSGGSNYKLTFGKGTLLTVNP
Vbeta: B2 Vbeta with S94I, T95S, P96R, R97T, S98V
B6: TCR 65 (TCR, V domains shown)
Valpha: EDQVTQSPEALRLQEGESSSLNCSYTVSGLRGLFWYRQDPGKGPEFLFTLYSAGEEKEKERLKATLTKKESFLHITAPKPEDSATYLCAVQAERGSTLGRLYFGRGTQLTVWP
Vbeta: DVKVTQSSRYLVKRTGEKVFLECVQDMDHENMFWYRQDPGLGLRLIYFSYDVKMKEKGDIPEGYSVSREKKERFSLILESASTNQTSMYLCASSLWGRRNTGELFFGEGSRLTVL

Molecular target: T1, HPV 16 E7 peptide on HLA-A*02:01 (human)
T1 peptide: YMLDLQPET
Test: multimer staining
B1: recognises. B2: recognises. B3: recognises. B4: recognises. B5: recognises. B6: no recognition.

Molecular target: T2, HPV 16 E6 peptide on HLA-A*02:01 (human)
T2 peptide: TIHDIILECV
Test: multimer staining
B1: no recognition. B2: no recognition. B3: no recognition. B4: no recognition. B5: no recognition. B6: recognises.
